What was measured:
[1] = target: Aurora A (UniProt O14965); experiment: GST-Aurora A pull-down of MBP-Bora; settings: reference: unphosphorylated MBP-Bora; sites S59
[2] = target: Aurora A (UniProt O14965); experiment: co-IP of Bora-GFP, Aurora A immunoblot; settings: reference: wild type Bora-GFP; sites S59
[3] = target: Aurora A (UniProt O14965); experiment: Myc co-IP, Aurora A immunoblot; settings: reference: wild type Bora-Myc; sites S59
[4] = target: Aurora A (UniProt O14965); experiment: GFP co-IP, Aurora A immunoblot; settings: reference: wild type Bora-GFP; sites S59

Row | Substance | binding against the reference [1] | binding against the reference [2] | binding against the reference [3] | binding against the reference [4]
1 | Bora (from UniProt Q6PGQ7) MBP-Bora-S59ph (genetic code expansion) | stronger |  |  | 
2 | Bora (from UniProt Q6PGQ7) S59A |  | weaker | weaker | weaker

— paper PMC12375101
